Results as given in patent publication US20120316071A1 (published 2012).

B1: Fab VH1-46_IGHD6-6*01_IGHJ1*01 S102A/S103P/S104F/H111F (APFF) & L6_IGKJ1*01 S30G (Fab, V domains shown)
VH: QVQLVQSGAEVKKPGASVKVSCKASGYTFTSYYMHWVRQAPGQGLEWMGIINPSGGSTSYAQKFQGRVTMTRDTSTSTVYMELSSLRSEDTAVYYCAREEYAPFSAEYFQFWGQGTLVTVSS
VL: EIVLTQSPATLSLSPGERATLSCRASQSVGSYLAWYQQKPGQAPRLLIYDASNRATGIPARFSGSGSGTDFTLTISSLEPEDFAVYYCQQRSNWPPWTFGQGTKVEIKR
notes: Fab made in E. coli; The constant parts (CH1 with His6 and Flag tags from plasmid A, kappa CL from plasmid C) are not added here; also called APFF & S30G
B2: Fab VH1-46_IGHD6-6*01_IGHJ1*01 S102A/S103P/S104F/H111F (APFF) & L6_IGKJ1*01 S31K (Fab, V domains shown)
VH: QVQLVQSGAEVKKPGASVKVSCKASGYTFTSYYMHWVRQAPGQGLEWMGIINPSGGSTSYAQKFQGRVTMTRDTSTSTVYMELSSLRSEDTAVYYCAREEYAPFSAEYFQFWGQGTLVTVSS
VL: EIVLTQSPATLSLSPGERATLSCRASQSVSKYLAWYQQKPGQAPRLLIYDASNRATGIPARFSGSGSGTDFTLTISSLEPEDFAVYYCQQRSNWPPWTFGQGTKVEIKR
notes: Fab made in E. coli; The constant parts (CH1 with His6 and Flag tags from plasmid A, kappa CL from plasmid C) are not added here; also called APFF & S31K
B3: Fab VH1-46_IGHD6-6*01_IGHJ1*01 S102A/S103P/S104F/H111F (APFF) & L6_IGKJ1*01 S31L (Fab, V domains shown)
VH: QVQLVQSGAEVKKPGASVKVSCKASGYTFTSYYMHWVRQAPGQGLEWMGIINPSGGSTSYAQKFQGRVTMTRDTSTSTVYMELSSLRSEDTAVYYCAREEYAPFSAEYFQFWGQGTLVTVSS
VL: EIVLTQSPATLSLSPGERATLSCRASQSVSLYLAWYQQKPGQAPRLLIYDASNRATGIPARFSGSGSGTDFTLTISSLEPEDFAVYYCQQRSNWPPWTFGQGTKVEIKR
notes: Fab made in E. coli; The constant parts (CH1 with His6 and Flag tags from plasmid A, kappa CL from plasmid C) are not added here; also called APFF & S31L
B4: Fab VH1-46_IGHD6-6*01_IGHJ1*01 S102A/S103P/S104F/H111F (APFF) & L6_IGKJ1*01 S30Q (Fab, V domains shown)
VH: QVQLVQSGAEVKKPGASVKVSCKASGYTFTSYYMHWVRQAPGQGLEWMGIINPSGGSTSYAQKFQGRVTMTRDTSTSTVYMELSSLRSEDTAVYYCAREEYAPFSAEYFQFWGQGTLVTVSS
VL: EIVLTQSPATLSLSPGERATLSCRASQSVQSYLAWYQQKPGQAPRLLIYDASNRATGIPARFSGSGSGTDFTLTISSLEPEDFAVYYCQQRSNWPPWTFGQGTKVEIKR
notes: Fab made in E. coli; The constant parts (CH1 with His6 and Flag tags from plasmid A, kappa CL from plasmid C) are not added here; also called APFF & S30Q
B5: Fab VH1-46_IGHD6-6*01_IGHJ1*01 S102A/S103P/S104F/H111F (APFF) & L6_IGKJ1*01 S31P (Fab, V domains shown)
VH: QVQLVQSGAEVKKPGASVKVSCKASGYTFTSYYMHWVRQAPGQGLEWMGIINPSGGSTSYAQKFQGRVTMTRDTSTSTVYMELSSLRSEDTAVYYCAREEYAPFSAEYFQFWGQGTLVTVSS
VL: EIVLTQSPATLSLSPGERATLSCRASQSVSPYLAWYQQKPGQAPRLLIYDASNRATGIPARFSGSGSGTDFTLTISSLEPEDFAVYYCQQRSNWPPWTFGQGTKVEIKR
notes: Fab made in E. coli; The constant parts (CH1 with His6 and Flag tags from plasmid A, kappa CL from plasmid C) are not added here; also called APFF & S31P
B6: Fab VH1-46_IGHD6-6*01_IGHJ1*01 S102A/S103P/S104F/H111F (APFF) & L6_IGKJ1*01 S30P (Fab, V domains shown)
VH: QVQLVQSGAEVKKPGASVKVSCKASGYTFTSYYMHWVRQAPGQGLEWMGIINPSGGSTSYAQKFQGRVTMTRDTSTSTVYMELSSLRSEDTAVYYCAREEYAPFSAEYFQFWGQGTLVTVSS
VL: EIVLTQSPATLSLSPGERATLSCRASQSVPSYLAWYQQKPGQAPRLLIYDASNRATGIPARFSGSGSGTDFTLTISSLEPEDFAVYYCQQRSNWPPWTFGQGTKVEIKR
notes: Fab made in E. coli; The constant parts (CH1 with His6 and Flag tags from plasmid A, kappa CL from plasmid C) are not added here; also called APFF & S30P
B7: Fab VH1-46_IGHD6-6*01_IGHJ1*01 S102A/S103P/S104F/H111F (APFF) & L6_IGKJ1*01 S31E (Fab, V domains shown)
VH: QVQLVQSGAEVKKPGASVKVSCKASGYTFTSYYMHWVRQAPGQGLEWMGIINPSGGSTSYAQKFQGRVTMTRDTSTSTVYMELSSLRSEDTAVYYCAREEYAPFSAEYFQFWGQGTLVTVSS
VL: EIVLTQSPATLSLSPGERATLSCRASQSVSEYLAWYQQKPGQAPRLLIYDASNRATGIPARFSGSGSGTDFTLTISSLEPEDFAVYYCQQRSNWPPWTFGQGTKVEIKR
notes: Fab made in E. coli; The constant parts (CH1 with His6 and Flag tags from plasmid A, kappa CL from plasmid C) are not added here; also called APFF & S31E
B8: Fab VH1-46_IGHD6-6*01_IGHJ1*01 S102A/S103P/S104F/H111F (APFF) & L6_IGKJ1*01 S31H (Fab, V domains shown)
VH: QVQLVQSGAEVKKPGASVKVSCKASGYTFTSYYMHWVRQAPGQGLEWMGIINPSGGSTSYAQKFQGRVTMTRDTSTSTVYMELSSLRSEDTAVYYCAREEYAPFSAEYFQFWGQGTLVTVSS
VL: EIVLTQSPATLSLSPGERATLSCRASQSVSHYLAWYQQKPGQAPRLLIYDASNRATGIPARFSGSGSGTDFTLTISSLEPEDFAVYYCQQRSNWPPWTFGQGTKVEIKR
notes: Fab made in E. coli; The constant parts (CH1 with His6 and Flag tags from plasmid A, kappa CL from plasmid C) are not added here; also called APFF & S31H
B9: Fab VH1-46_IGHD6-6*01_IGHJ1*01 S102A/S103P/S104F/H111F (APFF) & L6_IGKJ1*01 S31D (Fab, V domains shown)
VH: QVQLVQSGAEVKKPGASVKVSCKASGYTFTSYYMHWVRQAPGQGLEWMGIINPSGGSTSYAQKFQGRVTMTRDTSTSTVYMELSSLRSEDTAVYYCAREEYAPFSAEYFQFWGQGTLVTVSS
VL: EIVLTQSPATLSLSPGERATLSCRASQSVSDYLAWYQQKPGQAPRLLIYDASNRATGIPARFSGSGSGTDFTLTISSLEPEDFAVYYCQQRSNWPPWTFGQGTKVEIKR
notes: Fab made in E. coli; The constant parts (CH1 with His6 and Flag tags from plasmid A, kappa CL from plasmid C) are not added here; also called APFF & S31D
B10: Fab VH1-46_IGHD6-6*01_IGHJ1*01 S102A/S103P/S104F/H111F (APFF) & L6_IGKJ1*01 S30V (Fab, V domains shown)
VH: QVQLVQSGAEVKKPGASVKVSCKASGYTFTSYYMHWVRQAPGQGLEWMGIINPSGGSTSYAQKFQGRVTMTRDTSTSTVYMELSSLRSEDTAVYYCAREEYAPFSAEYFQFWGQGTLVTVSS
VL: EIVLTQSPATLSLSPGERATLSCRASQSVVSYLAWYQQKPGQAPRLLIYDASNRATGIPARFSGSGSGTDFTLTISSLEPEDFAVYYCQQRSNWPPWTFGQGTKVEIKR
notes: Fab made in E. coli; The constant parts (CH1 with His6 and Flag tags from plasmid A, kappa CL from plasmid C) are not added here; also called APFF & S30V
B11: Fab VH1-46_IGHD6-6*01_IGHJ1*01 S102A/S103P/S104F/H111F (APFF) & L6_IGKJ1*01 S31M (Fab, V domains shown)
VH: QVQLVQSGAEVKKPGASVKVSCKASGYTFTSYYMHWVRQAPGQGLEWMGIINPSGGSTSYAQKFQGRVTMTRDTSTSTVYMELSSLRSEDTAVYYCAREEYAPFSAEYFQFWGQGTLVTVSS
VL: EIVLTQSPATLSLSPGERATLSCRASQSVSMYLAWYQQKPGQAPRLLIYDASNRATGIPARFSGSGSGTDFTLTISSLEPEDFAVYYCQQRSNWPPWTFGQGTKVEIKR
notes: Fab made in E. coli; The constant parts (CH1 with His6 and Flag tags from plasmid A, kappa CL from plasmid C) are not added here; also called APFF & S31M

What follows are binders tested against T1, Recombinant Human DLL4 (delta-like protein 4) (human, UniProt Q9NR61 27-524) (assay: ECL (MSD) multispot binding assay, antigen spotted on plate, Fab in solution;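 further: purified Fab incubated 1 h at 20 °C, detected via TAG-labelled antibody electrochemiluminescence, antigen spot compared with the blank in the same well, ratio at least 4 counted as hit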).
T1 construct: Bought recombinant human DLL4 (R&D Systems Cat#1506-D4/CF); also called rHuman DLL4
With B1 the “ECL signal” value was 178000 and the Signal/Blank was 506.
In the case of B2, the “ECL signal” value is reported as 179000 and the Signal/Blank is reported as 351.
With B3 the Signal/Blank was 373.
For B4, the “ECL signal” value was 197000 and the Signal/Blank was 602.
B5 gave a Signal/Blank of 156.
In the case of B6, the “ECL signal” value is reported as 1260 and the Signal/Blank is reported as 4.2.
For B7, the “ECL signal” value was 171000 and the Signal/Blank was 517.
In the case of B8, the Signal/Blank is reported as 838.
B9 was tested, and the Signal/Blank was 313.
With B10 the “ECL signal” value was 141000 and the Signal/Blank was 497.
For B11, the Signal/Blank was 378.
